Source: IntAct's records for PubMed 31515488

B1: Spermatogenesis-associated protein 2 (Homo sapiens), Q9UM82 (parent)
chain: MGKPSSMDTKFKDDLFRKYVQFHESKVDTTTSRQRPGSDECLRVAASTLLSLHKVDPFYRFRLIQFYEVVESSLRSLSSSSLRALHGAFSMLETVGINLFLYPWKKEFRSIKTYTGPFVYYVKSTLLEEDIRAILSCMGYTPELGTAYKLRELVETLQVKMVSFELFLAKVECEQMLEIHSQVKDKGYSELDIVSERKSSAEDVRGCSDALRRRAEGREHLTASMSRVALQKSASERAAKDYYKPRVTKPSRSVDAYDSYWESRKPPLKASLSLRKEPVATDVGDDLKDEIIRPSPSLLTMASSPHGSPDVLPPASPSNGPALLRGTYFSTQDDVDLYTDSEPRATYRRQDALRPDVWLLRNDAHSLYHKRSPPAKESALSKCQSCGLSCSSSLCQRCDSLLTCPPASKPSAFPSKASTHDSLAHGASLREKYPGQTQGLDRLPHLHSKSKPSTTPTSRCGFCNRPGATNTCTQCSKVSCDACLSAYHYDPCYKKSELHKFMPNNQLNYKSTQLSHLVYR
partner: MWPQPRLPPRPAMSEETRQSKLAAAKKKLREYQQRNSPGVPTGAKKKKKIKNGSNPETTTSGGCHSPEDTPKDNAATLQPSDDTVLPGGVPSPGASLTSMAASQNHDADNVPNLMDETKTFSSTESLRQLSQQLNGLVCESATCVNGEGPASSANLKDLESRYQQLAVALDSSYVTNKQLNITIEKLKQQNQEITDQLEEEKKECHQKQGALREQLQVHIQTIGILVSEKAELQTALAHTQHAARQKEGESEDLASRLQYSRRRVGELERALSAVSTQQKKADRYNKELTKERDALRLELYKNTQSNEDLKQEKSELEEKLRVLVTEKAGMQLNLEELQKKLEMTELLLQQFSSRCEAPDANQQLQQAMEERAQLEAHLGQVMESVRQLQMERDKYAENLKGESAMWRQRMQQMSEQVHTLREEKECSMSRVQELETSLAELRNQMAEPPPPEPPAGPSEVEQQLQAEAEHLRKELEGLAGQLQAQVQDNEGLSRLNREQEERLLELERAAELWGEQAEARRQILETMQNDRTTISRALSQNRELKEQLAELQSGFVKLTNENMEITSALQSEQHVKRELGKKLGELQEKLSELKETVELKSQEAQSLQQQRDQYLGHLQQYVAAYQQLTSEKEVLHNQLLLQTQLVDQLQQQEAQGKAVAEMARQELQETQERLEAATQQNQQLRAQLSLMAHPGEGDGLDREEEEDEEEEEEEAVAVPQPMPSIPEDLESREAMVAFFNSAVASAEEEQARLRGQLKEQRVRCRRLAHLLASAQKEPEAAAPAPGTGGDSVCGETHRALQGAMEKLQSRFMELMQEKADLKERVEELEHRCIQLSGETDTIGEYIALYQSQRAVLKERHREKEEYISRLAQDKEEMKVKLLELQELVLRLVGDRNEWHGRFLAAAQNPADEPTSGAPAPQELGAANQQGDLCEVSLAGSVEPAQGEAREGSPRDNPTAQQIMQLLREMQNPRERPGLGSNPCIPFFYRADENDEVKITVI
B2: Trichoplein keratin filament-binding protein (Homo sapiens), Q9BT92 (parent)
chain: MALPTLPSYWCSQQRLNQQLARQREQEARLRQQWEQNSRYFRMSDICSSKQAEWSSKTSYQRSMHAYQREKMKEEKRRSLEARREKLRQLMQEEQDLLARELEELRLSMNLQERRIREQHGKLKSAKEEQRKLIAEQLLYEHWKKNNPKLREMELDLHQKHVVNSWEMQKEEKKQQEATAEQENKRYENEYERARREALERMKAEEERRQLEDKLQAEALLQQMEELKLKEVEATKLKKEQENLLKQRWELERLEEERKQMEAFRQKAELGRFLRHQYNAQLSRRTQQIQEELEADRRILQALLEKEDESQRLHLARREQVMADVAWMKQAIEEQLQLERAREAELQMLLREEAKEMWEKREAEWARERSARDRLMSEVLTGRQQQIQEKIEQNRRAQEESLKHREQLIRNLEEVRELARREKEESEKLKSARKQELEAQVAERRLQAWEADQQEEEEEEEARRVEQLSDALLQQEAETMAEQGYRPKPYGHPKIAWN
partner: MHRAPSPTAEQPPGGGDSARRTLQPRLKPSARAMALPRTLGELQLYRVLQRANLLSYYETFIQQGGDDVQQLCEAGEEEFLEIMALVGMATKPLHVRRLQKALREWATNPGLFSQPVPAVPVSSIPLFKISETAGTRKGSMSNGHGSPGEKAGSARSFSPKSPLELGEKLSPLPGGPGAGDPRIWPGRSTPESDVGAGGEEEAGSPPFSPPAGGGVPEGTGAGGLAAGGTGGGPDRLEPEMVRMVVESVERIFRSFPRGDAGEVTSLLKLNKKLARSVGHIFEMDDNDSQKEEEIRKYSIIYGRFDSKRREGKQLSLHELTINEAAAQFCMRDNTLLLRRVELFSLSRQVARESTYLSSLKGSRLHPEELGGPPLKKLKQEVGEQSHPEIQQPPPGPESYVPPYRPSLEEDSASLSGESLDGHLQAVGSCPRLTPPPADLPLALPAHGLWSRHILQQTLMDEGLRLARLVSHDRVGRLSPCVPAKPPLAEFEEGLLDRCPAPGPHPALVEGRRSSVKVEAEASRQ
B3: WASH complex subunit 3 (Homo sapiens), Q9Y3C0 (parent)
chain: MDEDGLPLMGSGIDLTKVPAIQQKRTVAFLNQFVVHTVQFLNRFSTVCEEKLADLSLRIQQIETTLNILDAKLSSIPGLDDVTVEVSPLNVTSVTNGAHPEATSEQPQQNSTQDSGLQESEVSAENILTVAKDPRYARYLKMVQVGVPVMAIRNKMISEGLDPDLLERPDAPVPDGESEKTVEESSDSESSFSD
partner: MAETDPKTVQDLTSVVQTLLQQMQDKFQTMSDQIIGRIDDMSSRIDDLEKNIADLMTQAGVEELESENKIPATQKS
B4: Coiled-coil domain-containing protein 92 (Homo sapiens), Q53HC0 (parent)
chain: MTSPHFSSYDEGPLDVSMAATNLENQLHSAQKNLLFLQREHASTLKGLHSEIRRLQQHCTDLTYELTVKSSEQTGDGTSKSSELKKRCEELEAQLKVKENENAELLKELEQKNAMITVLENTIKEREKKYLEELKAKSHKLTLLSSELEQRASTIAYLTSQLHAAKKKLMSSSGTSDASPSGSPVLASYKPAPPKDKLPETPRRRMKKSLSAPLHPEFEEVYRFGAESRKLLLREPVDAMPDPTPFLLARESAEVHLIKERPLVIPPIASDRSGEQHSPAREKPHKAHVGVAHRIHHATPPQAQPEVKTLAVDQVNGGKVVRKHSGTDRTV
partner: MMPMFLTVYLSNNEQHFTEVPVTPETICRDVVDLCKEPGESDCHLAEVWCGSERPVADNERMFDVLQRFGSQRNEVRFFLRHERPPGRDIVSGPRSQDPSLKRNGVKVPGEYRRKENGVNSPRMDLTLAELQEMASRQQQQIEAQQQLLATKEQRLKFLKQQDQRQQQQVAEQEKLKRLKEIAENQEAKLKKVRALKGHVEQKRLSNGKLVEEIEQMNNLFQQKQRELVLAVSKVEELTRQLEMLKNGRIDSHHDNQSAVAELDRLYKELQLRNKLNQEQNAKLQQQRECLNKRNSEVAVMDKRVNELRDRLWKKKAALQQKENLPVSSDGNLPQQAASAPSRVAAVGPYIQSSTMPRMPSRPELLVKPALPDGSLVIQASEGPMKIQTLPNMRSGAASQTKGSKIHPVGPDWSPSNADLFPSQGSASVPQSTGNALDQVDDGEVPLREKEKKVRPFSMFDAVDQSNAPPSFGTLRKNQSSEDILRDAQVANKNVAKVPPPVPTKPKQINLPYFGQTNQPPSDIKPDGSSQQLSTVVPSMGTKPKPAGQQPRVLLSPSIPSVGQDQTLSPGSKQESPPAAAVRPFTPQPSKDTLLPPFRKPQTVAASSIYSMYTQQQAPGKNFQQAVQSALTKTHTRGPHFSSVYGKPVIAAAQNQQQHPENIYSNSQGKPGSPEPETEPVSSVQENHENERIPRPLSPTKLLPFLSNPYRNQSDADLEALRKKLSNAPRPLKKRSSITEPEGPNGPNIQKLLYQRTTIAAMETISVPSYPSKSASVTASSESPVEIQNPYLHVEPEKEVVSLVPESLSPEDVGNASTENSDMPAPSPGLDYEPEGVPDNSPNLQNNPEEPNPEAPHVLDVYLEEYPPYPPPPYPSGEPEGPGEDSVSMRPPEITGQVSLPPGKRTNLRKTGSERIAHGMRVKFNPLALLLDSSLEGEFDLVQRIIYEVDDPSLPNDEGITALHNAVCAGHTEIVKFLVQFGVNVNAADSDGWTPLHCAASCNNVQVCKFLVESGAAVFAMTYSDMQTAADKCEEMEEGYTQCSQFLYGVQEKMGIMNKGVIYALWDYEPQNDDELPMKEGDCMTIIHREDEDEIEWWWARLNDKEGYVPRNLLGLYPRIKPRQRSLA
B5: Caspase recruitment domain-containing protein 9 (Homo sapiens), Q9H257 (parent)
chain: MSDYENDDECWSVLEGFRVTLTSVIDPSRITPYLRQCKVLNPDDEEQVLSDPNLVIRKRKVGVLLDILQRTGHKGYVAFLESLELYYPQLYKKVTGKEPARVFSMIIDASGESGLTQLLMTEVMKLQKKVQDLTALLSSKDDFIKELRVKDSLLRKHQERVQRLKEECEAGSRELKRCKEENYDLAMRLAHQSEEKGAALMRNRDLQLEIDQLKHSLMKAEDDCKVERKHTLKLRHAMEQRPSQELLWELQQEKALLQARVQELEASVQEGKLDRSSPYIQVLEEDWRQALRDHQEQANTIFSLRKDLRQGEARRLRCMEEKEMFELQCLALRKDSKMYKDRIEAILLQMEEVAIERDQAIATREELHAQHARGLQEKDALRKQVRELGEKADELQLQVFQCEAQLLAVEGRLRRQQLETLVLSSDLEDGSPRRSQELSLPQDLEDTQLSDKGCLAGGGSPKQPFAALHQEQVLRNPHDAGLSSGEPPEKERRRLKESFENYRRKRALRKMQKGWRQGEEDRENTTGSDNTDTEGS
partner: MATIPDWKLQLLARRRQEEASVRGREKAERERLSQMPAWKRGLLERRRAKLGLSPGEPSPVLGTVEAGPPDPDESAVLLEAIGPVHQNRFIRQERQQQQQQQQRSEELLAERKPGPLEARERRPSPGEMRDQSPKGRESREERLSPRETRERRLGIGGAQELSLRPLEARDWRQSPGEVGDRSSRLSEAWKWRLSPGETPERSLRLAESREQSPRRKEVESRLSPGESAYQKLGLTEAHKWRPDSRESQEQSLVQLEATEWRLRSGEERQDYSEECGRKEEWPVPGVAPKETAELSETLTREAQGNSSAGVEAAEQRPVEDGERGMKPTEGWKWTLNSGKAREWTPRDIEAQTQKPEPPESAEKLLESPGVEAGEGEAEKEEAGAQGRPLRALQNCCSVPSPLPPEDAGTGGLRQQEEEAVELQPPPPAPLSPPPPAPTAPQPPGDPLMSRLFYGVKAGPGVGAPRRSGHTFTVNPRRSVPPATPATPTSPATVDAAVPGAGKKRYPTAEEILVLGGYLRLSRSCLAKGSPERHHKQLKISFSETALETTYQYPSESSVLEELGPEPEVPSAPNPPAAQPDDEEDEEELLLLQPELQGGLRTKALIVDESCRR
B6: Trichoplein keratin filament-binding protein (Homo sapiens), Q9BT92 (parent)
chain: B2 chain

Variants of: B1
Conditions: with goga2_human GOLGA2, Q08379

Variant	effect of a mutation on the interaction
L443F	with no effect

Variants of: B2
Conditions: with nab2_human NAB2, Q15742

Variant	effect of a mutation on the interaction
K127R	with no effect

Variants of: B3
Conditions: with hsbp1_human HSBP1, O75506

Variant	effect of a mutation on the interaction
F44L	with no effect

Variants of: B4
Conditions: with aspp2_human TP53BP2, Q13625

Variant	effect of a mutation on the interaction
S70C	with no effect

Variants of: B5
Conditions: with ppr18_human PPP1R18, Q6NYC8

Variant	effect of a mutation on the interaction
V385L	disrupting interaction strength

Variants of: B6
Conditions: with KRT15, P19012
Sequence of KRT15, P19012 (P19012 whole entry): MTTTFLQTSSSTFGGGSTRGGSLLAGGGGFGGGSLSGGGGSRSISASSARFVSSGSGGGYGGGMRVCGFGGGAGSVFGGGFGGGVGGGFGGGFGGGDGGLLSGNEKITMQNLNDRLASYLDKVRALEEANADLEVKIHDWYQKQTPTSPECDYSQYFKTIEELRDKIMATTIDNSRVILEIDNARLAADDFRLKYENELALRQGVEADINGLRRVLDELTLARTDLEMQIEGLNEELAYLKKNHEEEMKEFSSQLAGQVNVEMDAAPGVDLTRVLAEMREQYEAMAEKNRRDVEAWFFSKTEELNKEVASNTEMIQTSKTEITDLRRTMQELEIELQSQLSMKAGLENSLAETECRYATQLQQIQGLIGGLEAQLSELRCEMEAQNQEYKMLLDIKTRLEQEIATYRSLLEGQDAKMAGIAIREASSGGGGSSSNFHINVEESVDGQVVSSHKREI

Variant	effect of a mutation on the interaction
R62Q	with no effect
